The results in this text go back to IntAct's records for PubMed 20493856.

Sequences and labels used below:
B1: ADP-ribosylation factor 6 (Mus musculus), P62331 (parent)
chain: MGKVLSKIFGNKEMRILMLGLDAAGKTTILYKLKLGQSVTTIPTVGFNVETVTYKNVKFNVWDVGGQDKIRPLWRHYYTGTQGLIFVVDCADRDRIDEARQELHRIINDREMRDAIILIFANKQDLPDAMKPHEIQEKLGLTRIRDRNWYVQPSCATSGDGLYEGLTWLTSNYKS
partner: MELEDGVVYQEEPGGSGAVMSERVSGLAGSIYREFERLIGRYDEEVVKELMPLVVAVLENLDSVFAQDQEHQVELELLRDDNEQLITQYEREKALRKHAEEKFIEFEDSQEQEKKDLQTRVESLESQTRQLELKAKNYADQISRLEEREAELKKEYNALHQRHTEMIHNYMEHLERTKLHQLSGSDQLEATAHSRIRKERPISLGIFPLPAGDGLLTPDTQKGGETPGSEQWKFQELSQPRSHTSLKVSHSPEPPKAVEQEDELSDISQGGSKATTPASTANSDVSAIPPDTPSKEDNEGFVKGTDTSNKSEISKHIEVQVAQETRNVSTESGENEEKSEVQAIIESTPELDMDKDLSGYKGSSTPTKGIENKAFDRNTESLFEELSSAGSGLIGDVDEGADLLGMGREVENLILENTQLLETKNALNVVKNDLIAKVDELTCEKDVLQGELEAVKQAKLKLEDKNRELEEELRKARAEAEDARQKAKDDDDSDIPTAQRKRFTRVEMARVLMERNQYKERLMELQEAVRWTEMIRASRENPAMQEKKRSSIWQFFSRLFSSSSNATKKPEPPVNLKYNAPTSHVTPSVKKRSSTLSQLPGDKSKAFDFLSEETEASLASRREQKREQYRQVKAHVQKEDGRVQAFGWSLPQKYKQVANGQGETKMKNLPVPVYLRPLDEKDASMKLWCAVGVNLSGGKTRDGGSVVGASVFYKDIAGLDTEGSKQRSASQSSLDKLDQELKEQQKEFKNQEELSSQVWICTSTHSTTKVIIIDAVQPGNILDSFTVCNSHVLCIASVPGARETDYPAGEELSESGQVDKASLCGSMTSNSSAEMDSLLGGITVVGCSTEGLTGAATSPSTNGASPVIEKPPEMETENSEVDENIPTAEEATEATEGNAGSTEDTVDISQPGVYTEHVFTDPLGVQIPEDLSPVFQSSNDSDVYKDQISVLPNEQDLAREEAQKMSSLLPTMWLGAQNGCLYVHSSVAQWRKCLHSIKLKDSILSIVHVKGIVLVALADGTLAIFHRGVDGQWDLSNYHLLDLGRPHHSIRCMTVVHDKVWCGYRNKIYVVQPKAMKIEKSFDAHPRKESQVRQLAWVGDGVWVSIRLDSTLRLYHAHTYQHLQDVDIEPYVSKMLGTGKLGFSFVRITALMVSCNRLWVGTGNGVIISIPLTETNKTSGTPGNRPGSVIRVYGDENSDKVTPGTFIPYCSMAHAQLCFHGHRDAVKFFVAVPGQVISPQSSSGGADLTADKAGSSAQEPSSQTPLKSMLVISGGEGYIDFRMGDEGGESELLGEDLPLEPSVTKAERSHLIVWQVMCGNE
B2: ADP-ribosylation factor 6 (Mus musculus), P62331 (parent)
chain: B1 chain
partner: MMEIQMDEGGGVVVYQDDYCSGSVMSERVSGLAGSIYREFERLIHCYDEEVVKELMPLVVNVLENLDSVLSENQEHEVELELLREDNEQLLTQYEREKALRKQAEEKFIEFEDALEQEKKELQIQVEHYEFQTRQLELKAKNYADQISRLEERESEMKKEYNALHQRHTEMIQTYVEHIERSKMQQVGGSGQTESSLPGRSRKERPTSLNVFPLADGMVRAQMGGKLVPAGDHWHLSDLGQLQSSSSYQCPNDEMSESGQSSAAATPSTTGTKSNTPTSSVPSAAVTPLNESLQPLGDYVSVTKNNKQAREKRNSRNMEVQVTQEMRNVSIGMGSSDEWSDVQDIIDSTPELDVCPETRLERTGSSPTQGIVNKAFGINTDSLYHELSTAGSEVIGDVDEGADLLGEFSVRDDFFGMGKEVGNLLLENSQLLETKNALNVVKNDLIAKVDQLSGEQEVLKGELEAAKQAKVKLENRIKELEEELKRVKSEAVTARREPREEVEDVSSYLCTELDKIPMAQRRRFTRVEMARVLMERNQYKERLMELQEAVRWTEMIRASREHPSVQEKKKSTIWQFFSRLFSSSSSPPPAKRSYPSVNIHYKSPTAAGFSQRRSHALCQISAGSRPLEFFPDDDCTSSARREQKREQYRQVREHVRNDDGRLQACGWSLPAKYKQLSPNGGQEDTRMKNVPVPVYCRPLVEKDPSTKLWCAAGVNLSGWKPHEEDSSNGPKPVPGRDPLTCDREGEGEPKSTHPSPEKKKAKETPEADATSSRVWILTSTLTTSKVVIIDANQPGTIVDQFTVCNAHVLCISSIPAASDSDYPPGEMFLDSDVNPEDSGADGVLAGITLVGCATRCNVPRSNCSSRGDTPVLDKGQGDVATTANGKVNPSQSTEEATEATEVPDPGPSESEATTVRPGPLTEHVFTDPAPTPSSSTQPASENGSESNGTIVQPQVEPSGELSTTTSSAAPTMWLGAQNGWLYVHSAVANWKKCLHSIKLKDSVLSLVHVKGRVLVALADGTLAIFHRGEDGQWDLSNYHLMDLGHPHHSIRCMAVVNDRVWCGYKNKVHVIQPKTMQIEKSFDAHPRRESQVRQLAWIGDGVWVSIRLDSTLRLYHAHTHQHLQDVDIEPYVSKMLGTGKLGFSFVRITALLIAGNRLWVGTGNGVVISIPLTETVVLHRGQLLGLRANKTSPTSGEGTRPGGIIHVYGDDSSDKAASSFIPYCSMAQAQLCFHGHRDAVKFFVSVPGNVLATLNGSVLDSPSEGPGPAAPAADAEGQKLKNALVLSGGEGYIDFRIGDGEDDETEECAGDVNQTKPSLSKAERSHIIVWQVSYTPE

Variants of B1 are the subject of the first experiment. As to conditions: with jip4_mouse Spag9, Q58A65.
As to T53E, the “effect of a mutation on the interaction” value is recorded as “disrupting interaction”.

In the case of K58C, the “effect of a mutation on the interaction” value was “disrupting interaction”.

Regarding N60T, the “effect of a mutation on the interaction” value is reported as “disrupting interaction”.

In another experiment the parent is B1. As to conditions: with jip4_mouse Spag9, Q58A65. The source holds these as a separate data set.
Consider T53E, for which the “effect of a mutation on the interaction” value is “decreasing interaction”.

Variants of B1 are the subject of a further experiment. As to conditions: with jip4_mouse Spag9, Q58A65. The source holds these as a separate data set.
Take T27N: the “effect of a mutation on the interaction” value is reported as “disrupting interaction”.

The next experiment covers variants of B1. As to conditions: with jip4_mouse Spag9, Q58A65. This is another data set of the same source.
On to T27N, for which the “effect of a mutation on the interaction” value is listed as “decreasing interaction”.

Variants of B1 are the subject of a further experiment. As to conditions: with jip4_mouse Spag9, Q58A65. The source holds these as a separate data set.
On to K58C, for which the “effect of a mutation on the interaction” value is “decreasing interaction”.

In the next experiment the parent is B1. As to conditions: with jip4_mouse Spag9, Q58A65. This is another data set of the same source.
Take L19V: the “effect of a mutation on the interaction” value is “decreasing interaction”.

The variants in the next experiment derive from B1. As to conditions: with jip4_mouse Spag9, Q58A65. This is another data set of the same source.
In the case of N60T, the “effect of a mutation on the interaction” value was “decreasing interaction”.

Variants of B2 are the subject of a further experiment. As to conditions: with jip3_mouse Mapk8ip3, Q9ESN9.
Consider T27N, for which the “effect of a mutation on the interaction” value is reported as “decreasing interaction”.

In another experiment the parent is B2. As to conditions: with jip3_mouse Mapk8ip3, Q9ESN9. The source holds these as a separate data set.
On to T27N, for which the “effect of a mutation on the interaction” value was “disrupting interaction”.

The variants in the next experiment derive from B2. As to conditions: with jip3_mouse Mapk8ip3, Q9ESN9. The source holds these as a separate data set.
With L19V, the “effect of a mutation on the interaction” value was “decreasing interaction”.

The variants in another experiment derive from B2. As to conditions: with jip3_mouse Mapk8ip3, Q9ESN9. The source holds these as a separate data set.
In the case of N60T, the “effect of a mutation on the interaction” value is listed as “disrupting interaction”.

Regarding K58C, the “effect of a mutation on the interaction” value is given as “disrupting interaction”.

In the case of T53E, the “effect of a mutation on the interaction” value is reported as “disrupting interaction”.

A further experiment covers variants of B2. As to conditions: with jip3_mouse Mapk8ip3, Q9ESN9. This is another data set of the same source.
In the case of K58C, the “effect of a mutation on the interaction” value is “decreasing interaction”.

The variants in the next experiment derive from B2. As to conditions: with jip3_mouse Mapk8ip3, Q9ESN9. The source holds these as a separate data set.
With T53E, the “effect of a mutation on the interaction” value is listed as “decreasing interaction”.
